These results are taken from patent US20200199647A1 (published 2020).

The target of test [1] is T1, PP1c (human PP1cα amino acids 7-330, N-terminal Thio6/His6 tag) (human, UniProt P62136 7-330).
T1 construct: range 7-330; Recombinant, from E. coli with GroEL/GroES and MnCl2; In thermophoresis it was labelled with the Monolith NT Red-NHS kit; also called protein phosphatase 1c; Thio6/His6-PP1c
Description: thermophoresis (MST), labelled PP1c.

Test [2] addresses T1, PP1c (human PP1cα amino acids 7-330, …). Description: thermophoresis, labelled PP1c, unlabelled fragment titrated.

T1 sequence (P62136 other isoform, or with tags, fused parts or gaps): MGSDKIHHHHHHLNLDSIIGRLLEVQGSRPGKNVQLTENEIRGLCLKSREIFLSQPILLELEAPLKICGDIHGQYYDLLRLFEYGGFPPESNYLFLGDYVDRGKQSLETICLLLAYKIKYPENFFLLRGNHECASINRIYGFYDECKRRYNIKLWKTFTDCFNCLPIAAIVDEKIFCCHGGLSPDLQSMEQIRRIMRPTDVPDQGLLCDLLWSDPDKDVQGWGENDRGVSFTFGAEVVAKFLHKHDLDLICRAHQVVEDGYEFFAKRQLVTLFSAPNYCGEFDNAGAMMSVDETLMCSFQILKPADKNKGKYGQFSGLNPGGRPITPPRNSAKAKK

B1: R15B^C (human PPP1R15B amino acids 636-698, N-terminal MBP-tag, C-terminal His6-tag) (other, not shown: large carriers)
chain: VKRKKVTFLEEVTEYYISGDEDRKGPWEEFARDGCRFQKRIQETEDAIGYCLTFEHRERMFNRHHHHHH
notes: range 636-698; also called R15B^636-698; carboxy-terminal fragment of R15B
As to B1, in test [1], the binding result is on record as “binds”.

B2: R15B^N (human PPP1R15B amino acids 340-635, N-terminal MBP-tag, C-terminal His6-tag) (other, not shown: large carriers)
chain: RDNPTQFVPAAGDIPGNTQESTEEKIELLTTEVPLALEEESPSEGCPSSEIPMEKEPGEGRISVVDYSYLEGDLPISARPACSNKLIDYILGGASSDLETSSDPEGEDWDEEAEDDGFDSDSSLSDSDLEQDPEGLHLWNSFCSVDPYNPQNFTATIQTAARIVPEEPSDSEKDLSGKSDLENSSQSGSLPETPEHSSGEEDDWESSADEAESLKLWNSFCNSDDPYNPLNFKAPFQTSGENEKGCRDSKTPSESIVAISECHTLLSCKVQLLGSQESECPDSVQRDVLSGGRHTHHHHHHH
notes: range 340-635; also called R15B^340-635; amino-terminal fragment of R15B
Regarding B2, the binding result in test [2] is “no binding”.
